Reference: the supplement of paper PMC10724198
± gives the standard deviation of the averaged measurements.

Key:
Saccharomyces cerevisiae [1] = test: protein stability index of tFT-peptide fusion (C-terminal peptide) (PSI (0-1 scale)); higher = more stable (slower turnover); settings: genetic background: wild type; temperature: 30 C
Saccharomyces cerevisiae [2] = test: as above
Description: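 MPS profiling in S. cerevisiae of the tFT-X12 degron library: putative degron peptides plus stable controls, 12 aa, fused to the C-terminus of a sfGFP-mCherry timer. Cells are FACS-sorted into 8 mCherry/sfGFP bins and deep-sequenced. PSI runs from 0 (unstable) to 1 (stable). Backgrounds are wild type, das1Δ and doa10Δ at 30 °C, and wild type, das1Δ, cdc34-1 and cdc53-1 at 37 °C; 2-3 technical replicates each.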

[3] = genetic background: cdc34-1, temperature: 37 C
[4] = genetic background: cdc53-1, temperature: 37 C
[5] = genetic background: das1 deletion, temperature: 30 C
[6] = genetic background: das1 deletion, temperature: 37 C
[7] = genetic background: doa10 deletion, temperature: 30 C
[8] = genetic background: wild type, temperature: 30 C
[9] = genetic background: wild type, temperature: 37 C
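Further: PSI is a weighted mean of sequencing reads over stability bins, variants kept only with over 10 reads, mCherry proximal and sfGFP distal, peptide attached via GGGS linker.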

## SRFPARCLLCCW
Saccharomyces cerevisiae [1]
  protein stability index: 0.501 ± 0.031
Saccharomyces cerevisiae [2]; [3]
  protein stability index: 0.531 ± 0.029
Saccharomyces cerevisiae [2]; [4]
  protein stability index: 0.52 ± 0.021
Saccharomyces cerevisiae [2]; [5]
  protein stability index: 0.454 ± 0.036
Saccharomyces cerevisiae [2]; [6]
  protein stability index: 0.583 ± 0.017
Saccharomyces cerevisiae [2]; [7]
  protein stability index: 0.4309 ± 0.002
Saccharomyces cerevisiae [2]; [8]
  protein stability index: 0.449 ± 0.018
Saccharomyces cerevisiae [2]; [9]
  protein stability index: 0.546 ± 0.007

## VGELYRLRKLHV
Saccharomyces cerevisiae [1]
  protein stability index: 0.313 ± 0.035
Saccharomyces cerevisiae [2]; [3]
  protein stability index: 0.69 ± 0.026
Saccharomyces cerevisiae [2]; [4]
  protein stability index: 0.73 ± 0.013
Saccharomyces cerevisiae [2]; [5]
  protein stability index: 0.607 ± 0.02
Saccharomyces cerevisiae [2]; [6]
  protein stability index: 0.728 ± 0.015
Saccharomyces cerevisiae [2]; [7]
  protein stability index: 0.222 ± 0.02
Saccharomyces cerevisiae [2]; [8]
  protein stability index: 0.249 ± 0.035
Saccharomyces cerevisiae [2]; [9]
  protein stability index: 0.506 ± 0.018

## FPRLERVAVMAR
Saccharomyces cerevisiae [1]
  protein stability index: 0.25 ± 0.011
Saccharomyces cerevisiae [2]; [3]
  protein stability index: 0.117 ± 0.035
Saccharomyces cerevisiae [2]; [4]
  protein stability index: 0.127 ± 0.035
Saccharomyces cerevisiae [2]; [5]
  protein stability index: 0.177 ± 0.032
Saccharomyces cerevisiae [2]; [6]
  protein stability index: 0.244 ± 0.0086
Saccharomyces cerevisiae [2]; [7]
  protein stability index: 0.145 ± 0.0069
Saccharomyces cerevisiae [2]; [8]
  protein stability index: 0.167 ± 0.025
Saccharomyces cerevisiae [2]; [9]
  protein stability index: 0.221 ± 0.031

## LQFSLPCFLLIF
Saccharomyces cerevisiae [1]
  protein stability index: 0.221 ± 0.033
Saccharomyces cerevisiae [2]; [3]
  protein stability index: 0.145 ± 0.0042
Saccharomyces cerevisiae [2]; [4]
  protein stability index: 0.134 ± 0.022
Saccharomyces cerevisiae [2]; [5]
  protein stability index: 0.205 ± 0.019
Saccharomyces cerevisiae [2]; [6]
  protein stability index: 0.253 ± 0.0062
Saccharomyces cerevisiae [2]; [7]
  protein stability index: 0.211 ± 0.0099
Saccharomyces cerevisiae [2]; [8]
  protein stability index: 0.159 ± 0.015
Saccharomyces cerevisiae [2]; [9]
  protein stability index: 0.208 ± 0.019

## VFLSLVFFFIIT
Saccharomyces cerevisiae [1]
  protein stability index: 0.367 ± 0.026
Saccharomyces cerevisiae [2]; [3]
  protein stability index: 0.254 ± 0.011
Saccharomyces cerevisiae [2]; [4]
  protein stability index: 0.343 ± 0.0077
Saccharomyces cerevisiae [2]; [5]
  protein stability index: 0.282 ± 0.035
Saccharomyces cerevisiae [2]; [6]
  protein stability index: 0.43 ± 0.005
Saccharomyces cerevisiae [2]; [7]
  protein stability index: 0.287 ± 0.013
Saccharomyces cerevisiae [2]; [8]
  protein stability index: 0.275 ± 0.019
Saccharomyces cerevisiae [2]; [9]
  protein stability index: 0.392 ± 0.021

## VRRSVGGWSKVG
Saccharomyces cerevisiae [1]
  protein stability index: 0.339 ± 0.022
Saccharomyces cerevisiae [2]; [3]
  protein stability index: 0.638 ± 0.011
Saccharomyces cerevisiae [2]; [4]
  protein stability index: 0.724 ± 0.023
Saccharomyces cerevisiae [2]; [5]
  protein stability index: 0.636 ± 0.029
Saccharomyces cerevisiae [2]; [6]
  protein stability index: 0.7327 ± 0.0047
Saccharomyces cerevisiae [2]; [7]
  protein stability index: 0.158 ± 0.023
Saccharomyces cerevisiae [2]; [8]
  protein stability index: 0.194 ± 0.037
Saccharomyces cerevisiae [2]; [9]
  protein stability index: 0.505 ± 0.013

## LWAVGWIIYFIV
Saccharomyces cerevisiae [1]
  protein stability index: 0.172 ± 0.024
Saccharomyces cerevisiae [2]; [3]
  protein stability index: 0.0967 ± 0.0059
Saccharomyces cerevisiae [2]; [4]
  protein stability index: 0.245 ± 0.014
Saccharomyces cerevisiae [2]; [5]
  protein stability index: 0.211 ± 0.028
Saccharomyces cerevisiae [2]; [6]
  protein stability index: 0.362 ± 0.0042
Saccharomyces cerevisiae [2]; [7]
  protein stability index: 0.106 ± 0.026
Saccharomyces cerevisiae [2]; [8]
  protein stability index: 0.106 ± 0.011
Saccharomyces cerevisiae [2]; [9]
  protein stability index: 0.0941 ± 0.006

## NKYNQFKWHINH
Saccharomyces cerevisiae [1]
  protein stability index: 0.295 ± 0.0036
Saccharomyces cerevisiae [2]; [3]
  protein stability index: 0.624 ± 0.12
Saccharomyces cerevisiae [2]; [4]
  protein stability index: 0.698 ± 0.014
Saccharomyces cerevisiae [2]; [5]
  protein stability index: 0.624 ± 0.026
Saccharomyces cerevisiae [2]; [6]
  protein stability index: 0.742 ± 0.019
Saccharomyces cerevisiae [2]; [7]
  protein stability index: 0.134 ± 0.034
Saccharomyces cerevisiae [2]; [8]
  protein stability index: 0.136 ± 0.0086
Saccharomyces cerevisiae [2]; [9]
  protein stability index: 0.295 ± 0.031

## DRLAVLVLLRVY
Saccharomyces cerevisiae [1]
  protein stability index: 0.109 ± 0.017
Saccharomyces cerevisiae [2]; [3]
  protein stability index: 0.0219 ± 0.0022
Saccharomyces cerevisiae [2]; [4]
  protein stability index: 0.0458 ± 0.013
Saccharomyces cerevisiae [2]; [5]
  protein stability index: 0.137 ± 0.041
Saccharomyces cerevisiae [2]; [6]
  protein stability index: 0.182 ± 0.0035
Saccharomyces cerevisiae [2]; [7]
  protein stability index: 0.0574 ± 0.01
Saccharomyces cerevisiae [2]; [8]
  protein stability index: 0.0636 ± 0.018
Saccharomyces cerevisiae [2]; [9]
  protein stability index: 0.0571 ± 0.016

## YVLVVSFLACVF
Saccharomyces cerevisiae [1]
  protein stability index: 0.192 ± 0.012
Saccharomyces cerevisiae [2]; [3]
  protein stability index: 0.0628 ± 0.013
Saccharomyces cerevisiae [2]; [4]
  protein stability index: 0.172 ± 0.053
Saccharomyces cerevisiae [2]; [5]
  protein stability index: 0.142 ± 0.03
Saccharomyces cerevisiae [2]; [6]
  protein stability index: 0.266 ± 0.0094
Saccharomyces cerevisiae [2]; [7]
  protein stability index: 0.104 ± 0.021
Saccharomyces cerevisiae [2]; [8]
  protein stability index: 0.13 ± 0.014
Saccharomyces cerevisiae [2]; [9]
  protein stability index: 0.234 ± 0.0088

## SLLSELILVGVS
Saccharomyces cerevisiae [1]
  protein stability index: 0.406 ± 0.021
Saccharomyces cerevisiae [2]; [3]
  protein stability index: 0.394 ± 0.0081
Saccharomyces cerevisiae [2]; [4]
  protein stability index: 0.409 ± 0.0044
Saccharomyces cerevisiae [2]; [5]
  protein stability index: 0.284 ± 0.035
Saccharomyces cerevisiae [2]; [6]
  protein stability index: 0.465 ± 0.0089
Saccharomyces cerevisiae [2]; [7]
  protein stability index: 0.229 ± 0.011
Saccharomyces cerevisiae [2]; [8]
  protein stability index: 0.304 ± 0.018
Saccharomyces cerevisiae [2]; [9]
  protein stability index: 0.4308 ± 0.0017

## IKKKRNKKKMIM
Saccharomyces cerevisiae [1]
  protein stability index: 0.505 ± 0.042
Saccharomyces cerevisiae [2]; [3]
  protein stability index: 0.653 ± 0.093
Saccharomyces cerevisiae [2]; [4]
  protein stability index: 0.727 ± 0.011
Saccharomyces cerevisiae [2]; [5]
  protein stability index: 0.655 ± 0.026
Saccharomyces cerevisiae [2]; [6]
  protein stability index: 0.731 ± 0.026
Saccharomyces cerevisiae [2]; [7]
  protein stability index: 0.316 ± 0.035
Saccharomyces cerevisiae [2]; [8]
  protein stability index: 0.322 ± 0.048
Saccharomyces cerevisiae [2]; [9]
  protein stability index: 0.597 ± 0.013

## VILMFELFGVRI
Saccharomyces cerevisiae [1]
  protein stability index: 0.331 ± 0.029
Saccharomyces cerevisiae [2]; [3]
  protein stability index: 0.324 ± 0.04
Saccharomyces cerevisiae [2]; [4]
  protein stability index: 0.457 ± 0.019
Saccharomyces cerevisiae [2]; [5]
  protein stability index: 0.355 ± 0.058
Saccharomyces cerevisiae [2]; [6]
  protein stability index: 0.4304 ± 0.0029
Saccharomyces cerevisiae [2]; [7]
  protein stability index: 0.327 ± 0.019
Saccharomyces cerevisiae [2]; [8]
  protein stability index: 0.313 ± 0.051
Saccharomyces cerevisiae [2]; [9]
  protein stability index: 0.422 ± 0.054

## ALERCFIRRVTV
Saccharomyces cerevisiae [1]
  protein stability index: 0.477 ± 0.069
Saccharomyces cerevisiae [2]; [3]
  protein stability index: 0.513 ± 0.013
Saccharomyces cerevisiae [2]; [4]
  protein stability index: 0.582 ± 0.024
Saccharomyces cerevisiae [2]; [5]
  protein stability index: 0.415 ± 0.017
Saccharomyces cerevisiae [2]; [6]
  protein stability index: 0.593 ± 0.021
Saccharomyces cerevisiae [2]; [7]
  protein stability index: 0.322 ± 0.024
Saccharomyces cerevisiae [2]; [8]
  protein stability index: 0.394 ± 0.016
Saccharomyces cerevisiae [2]; [9]
  protein stability index: 0.532 ± 0.01

## FSIFFIIEFVGT
Saccharomyces cerevisiae [1]
  protein stability index: 0.242 ± 0.12
Saccharomyces cerevisiae [2]; [3]
  protein stability index: 0.179 ± 0.038
Saccharomyces cerevisiae [2]; [4]
  protein stability index: 0.211 ± 0.0069
Saccharomyces cerevisiae [2]; [5]
  protein stability index: 0.209 ± 0.015
Saccharomyces cerevisiae [2]; [6]
  protein stability index: 0.374 ± 0.013
Saccharomyces cerevisiae [2]; [7]
  protein stability index: 0.157 ± 0.011
Saccharomyces cerevisiae [2]; [8]
  protein stability index: 0.187 ± 0.028
Saccharomyces cerevisiae [2]; [9]
  protein stability index: 0.324 ± 0.022
